# Data as given in the RNAGym collection of RNA variant scans (doi:10.7554/elife.80360).
# B1: HDV Ribozyme (parent)
# chain: GGCCGGCAUGGUCCCAGCCUCCUCGCUGGCGCCGGCUGGGCAACAUUCCGAGGGGACCGUCCCCUCGGUAAUGGCGAAUGGGACCCA
# Variants of: B1
# Experiment: self-cleavage, relative activity (ratio to wild type); higher = more cleavage; co-transcriptional
row,Variant,self-cleavage
1,G6U U37C,0.943
2,C7G U69C,0.277
3,C7G U69G,0.293
4,C7G U47A,0
5,C7G C24U,0.0692
6,A8U U20G,0.166
7,A8C C58U,0.831
8,C7A G52A,0.629
9,A8U C24G,0.0405
10,C7U C44U,0.374
11,C7U C44G,0.464
12,A8G G25U,0.35
13,C7A G68A,0.464
14,C7U C84A,1.14
15,C7U C84G,0.527
16,A8G C14G,0
17,C7U U60A,0.682
18,A8U G39U,0.571
19,A8U G68A,0.511
20,A8C G73A,0.256
21,C7U C36U,0.399
22,A8G G73C,0.437
23,C7U G82C,0.227
24,A8C G82U,0.116

row,Variant,self-cleavage
1,C7A C48U,0.542
2,A8C G11U,0.17
3,C7A C14A,0.123
4,A8U U65C,0.895
5,A8G G50A,1.03
6,A8G G50C,1.17
7,A8G C19U,0.104
8,A8G G10C,0.665
9,C7G A8C,0
10,C7G A8G,0.519
11,C7U C57G,1.2
12,C7U U65A,0.475
13,A8G C22G,0.0489
14,A8G C22U,0.361
15,A8C G10A,0.95
16,A8C G10U,0.415
17,A8C G10C,0.623
18,A8U C14A,0.192
19,C7U C22U,0.394
20,C7G C75G,0.145
21,A8G A56U,0.831
22,A8G C61G,1.04
23,A8C G17A,0.831
24,A8U C30G,0.0369

row,Variant,self-cleavage
1,C7G G53U,0.26
2,C7G G53A,0.26
3,A8G U60A,0.95
4,C7U G59A,0.8
5,A8U A16U,0.962
6,A8G C36A,0.0386
7,C7G A71C,0.222
8,A8G C44G,0.499
9,A8G C44A,0.665
10,A8G C44U,0.475
11,C7U U12A,0.35
12,C7U U12C,0.237
13,A8C A83G,0.646
14,C7G G73U,0.0831
15,A8U U79A,0.525
16,A8U U79G,0.289
17,C7A U47A,0.697
18,U9A A16U,1.19
19,A8C G38U,0.0875
20,C7U U37G,0.19
21,C7U C18A,0
22,A8U U12C,0.227
23,A8U G53C,1.01
24,C7A C57G,0.571

row,Variant,self-cleavage
1,A8C U46A,0.217
2,C7A G55A,0.627
3,C7G C32A,0
4,C7G G74C,0.0475
5,C7G G74A,0.138
6,C7A U20A,0
7,C7U C61G,0.743
8,A8G C57A,0.779
9,C7G C21U,0.0594
10,A8U A42C,0.0692
11,A8U G28A,0.0369
12,C7U G54U,1
13,C7U G54C,0.884
14,C7A U65A,0.356
15,C7A U65G,0.246
16,C7A G59C,0.578
17,A8C U72C,0.185
18,A8U A43U,0.125
19,A8U A43C,0.453
20,C7U U9G,0.997
21,C7U U9A,0.86
22,C7U C24G,0.0739
23,A8C A16G,0.831
24,A8U C85U,1.09

row,Variant,self-cleavage
1,A8U C85A,0.959
2,A8U C85G,0.883
3,A8G G80A,0.148
4,A8G A42C,0.0573
5,C7G G25C,0
6,C7G C19A,0.0831
7,A8G G53C,1.03
8,A8G G76U,0.831
9,A8U A78C,0.128
10,A8C C75U,0.128
11,A8U C84A,0.95
12,A8U C84U,0.506
13,C7A U79G,0.192
14,C7A U79A,0.249
15,C7U G10C,0.266
16,C7U G10A,0.425
17,A8C G31U,0.214
18,A8C G31C,0.119
19,A8U G25A,0
20,A8U C66G,0.8
21,A8U C66U,0.906
22,U9A C14A,0.65
23,A8C G76C,0.705
24,A8G A51G,1.16

row,Variant,self-cleavage
1,A8C C84G,0.208
2,A8C C24G,0
3,A8C C26G,1.11
4,C7A C66U,0.587
5,C7A C15G,0.123
6,C7A A43U,0.0386
7,A8U C75G,0.142
8,C7G C33A,0.196
9,C7G G10C,0.222
10,A8U A83U,0.26
11,C7A G11U,0.095
12,A8U A87G,0.754
13,A8U A87C,0.845
14,C7A C18A,0.0852
15,A8G C18A,0.0875
16,A8G C18U,0.297
17,A8C G74A,0.314
18,A8U G11C,0.0978
19,A8C C33G,0.0923
20,C7G C13A,0
21,A8C A51U,0.831
22,A8C U27A,0.867
23,A8G C62A,1.03
24,A8U C19G,0.106

row,Variant,self-cleavage
1,C7G A56U,0.475
2,A8C C63A,0.852
3,A8C C63G,0.554
4,A8C C57U,0.895
5,A8C C22U,0.426
6,A8C A45G,0.615
7,C7U C13U,0.332
8,C7U C13G,0
9,G6U U47G,0.554
10,C7A G67C,0.302
11,C7A G67A,0.315
12,C7G C14G,0
13,C7U G38A,0.0496
14,C7U G38U,0.109
15,A8U A70G,0.969
16,A8C G40U,0.345
17,A8C G40C,0.242
18,A8U G35U,0.262
19,C7G C26U,0.356
20,C7U C41G,0.225
21,C7G C84A,0.111
22,C7U C32A,0.0707
23,C7U C32U,0.394
24,C7U C32G,0.0361

row,Variant,self-cleavage
1,A8C G53A,0.846
2,A8C G53U,0.831
3,A8C C15A,0.199
4,C7G U27G,0.256
5,C7G U27A,0.217
6,C7A C32G,0
7,A8U G74A,0.115
8,C7G G52C,0.229
9,C7G G50C,0.138
10,A8U C58G,0.582
11,G6U U20G,0
12,U9A A56C,1.16
13,U9A A56G,0.95
14,C7A G25C,0
15,C7U C49A,0.974
16,C7U G50A,0.786
17,C7G G29C,0.0615
18,C7U C62A,0.764
19,A8G G68C,1.06
20,A8U C48U,1.13
21,C7U U46G,0.68
22,C7G G67C,0.0573
23,A8G G74U,0.111
24,A8U G55C,1.04

row,Variant,self-cleavage
1,A8G C26G,1.36
2,C7A U9A,0.431
3,C7G G82U,0
4,A8C A70U,0.623
5,A8C A70G,0.782
6,U9A C13G,0.111
7,C7A A87U,0.505
8,A8G C85A,0.68
9,A8G C21A,0.0415
10,A8G U23C,0.612
11,C7A G35C,0.0665
12,A8U G54C,0.538
13,A8C U23A,0.615
14,C7A C64A,0.227
15,A8G U79G,0.332
16,C7A C22A,0.0941
17,C7A C22U,0
18,C7G G55A,0.302
19,C7A G76U,0.849
20,A8C G59U,0.804
21,A8G G55A,0.655
22,A8G C41G,0.578
23,A8C G35A,0.142
24,A8G A77C,0.277

row,Variant,self-cleavage
1,C7U A42C,0.18
2,C7U A42U,0.196
3,C7U U69C,0.853
4,A8U A51C,0.633
5,A8C A56C,0.692
6,A8U G50A,0.739
7,A8C U20A,0.0615
8,U9A A43C,0.447
9,C7U G80U,0.117
10,C7U G74A,0.204
11,A8C C49A,0.9
12,C7A G50C,0.415
13,C7A C26A,0.615
14,A8G G82C,0.128
15,U9A A51C,0.923
16,C7G C62G,0.111
17,C7G C62A,0
18,A8G G81C,0.115
19,A8G G81U,0.256
20,C7A U27C,0.287
21,A8U G76U,0.707
22,A8U G76A,0.95
23,A8C U47G,0.795
24,C7A C49U,0.582

row,Variant,self-cleavage
1,A8G U47A,1.05
2,A8G U47C,1.07
3,A8G U47G,0.782
4,A8G G67C,0.665
5,A8C G52C,0.957
6,C7U C66U,0.665
7,C7G C58U,0.492
8,G6U U79G,0.185
9,C7G G35C,0.237
10,C7G G35A,0.156
11,A8C C61G,0.772
12,C7A A78U,0.0791
13,A8C A77C,0.317
14,A8C A77U,0.356
15,C7G C30A,0.0361
16,G6U U72A,0.0665
17,G6U U72G,0.133
18,A8U U27G,0.906
19,A8U U47G,0.831
20,A8U U23A,0.804
21,C7G U72C,0
22,C7A C33U,0.148
23,A8C C86G,1.02
24,U9A A42U,0.688

row,Variant,self-cleavage
1,C7U A78C,0.0923
2,A8U G34A,0.242
3,A8U G34U,0.142
4,C7A C84U,0.366
5,C7U C63U,0.918
6,A8G U65G,0.906
7,U9A A70G,0.918
8,C7U G34A,0.0302
9,C7U C58A,0.88
10,A8C G25C,0
11,A8C G25A,0.172
12,A8C G25U,0.138
13,A8C C21G,0.0594
14,C7A C85G,0.688
15,A8U G82A,0
16,C7G G17C,0
17,A8G G29U,0
18,C7A U69G,0.751
19,C7U G25A,0.212
20,A8G A70C,0.519
21,C7G A43U,0.0573
22,C7G C57A,0.434
23,A8U C64G,0.856
24,C7A A56U,0.617

row,Variant,self-cleavage
1,C7A G29A,0.0804
2,C7A A42C,0.19
3,C7U A51C,0.643
4,C7G A45G,0.217
5,A8G A78G,0.128
6,A8U G31A,0.405
7,A8U C32A,0
8,A8U C32G,0.125
9,C7U C64A,0.923
10,C7G C44A,0
11,C7U A8U,0.831
12,C7U A8G,0.582
13,A8G U37G,0
14,C7G U12G,0
15,A8G G35C,0.0426
16,A8G G35A,0.332
17,A8G G28U,0.185
18,A8C G34A,0.0475
19,G6U U60C,0.525
20,A8U A45U,0.587
21,A8U A45G,0.489
22,A8C C66A,0.831
23,C7U G81A,0.352
24,C7U G81U,0.187

row,Variant,self-cleavage
1,A8C A87C,0.805
2,A8C C41G,0.457
3,A8C C41A,0.798
4,C7G C66G,0.214
5,C7G C66U,0.231
6,C7G U46G,0
7,A8U C41G,0.506
8,C7U G52A,0.68
9,C7A G28A,0.123
10,C7U G28U,0.0712
11,C7G C48U,0.262
12,A8G G54U,0.906
13,A8G G17U,0.554
14,C7G C86A,0.426
15,C7U G68U,0.764
16,C7G A83U,0
17,C7U A56U,0.739
18,A8U U46G,0.604
19,C7G G11C,0
20,A8G C32U,0.609
21,A8G C32G,0.0573
22,C7A G81U,0.116
